Article PMC8647145, “Foxd3 controls heterochromatin‐mediated repression of repeat elements and 2‐cell state transcription”
Changes are numbered by the printed parent chain.

T1: GST-FOXD3 (mouse, UniProt Q61060 1-465)
T1 sequence: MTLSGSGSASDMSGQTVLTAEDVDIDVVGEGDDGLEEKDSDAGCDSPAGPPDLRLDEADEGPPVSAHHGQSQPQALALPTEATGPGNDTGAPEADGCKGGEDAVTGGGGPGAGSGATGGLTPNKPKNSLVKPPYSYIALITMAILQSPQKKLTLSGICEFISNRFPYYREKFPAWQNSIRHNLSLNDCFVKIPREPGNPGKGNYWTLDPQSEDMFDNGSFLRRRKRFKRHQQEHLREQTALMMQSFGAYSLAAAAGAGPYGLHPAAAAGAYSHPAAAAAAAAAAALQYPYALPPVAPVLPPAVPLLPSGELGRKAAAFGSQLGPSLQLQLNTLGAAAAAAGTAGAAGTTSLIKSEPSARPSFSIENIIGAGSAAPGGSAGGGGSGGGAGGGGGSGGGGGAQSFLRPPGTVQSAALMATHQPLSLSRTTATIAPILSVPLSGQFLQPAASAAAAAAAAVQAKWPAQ

B1: MSR_MUT (dsDNA)
DNA 1: CTGAAAATCATGGAAAATGCGTGACGGCGACTTGA
DNA 2: TCAAGTCGCCGTCACGCATTTTCCATGATTTTCAG
B2: MERVL-LTR_MUT (dsDNA)
DNA 1: CAGCTGTGTTCTAAGTGGTACACGCCTAATCTGCG
DNA 2: CGCAGATTAGGCGTGTACCACTTAGAACACAGCTG
B3: L1MdA (dsDNA)
DNA 1: GTACATAGGGAAGCAGGCTACCCGGGCCTGATCTG
DNA 2: CAGATCAGGCCCGGGTAGCCTGCTTCCCTATGTAC
B4: Hprt (dsDNA)
DNA 1: AGGGCGGGCCGAGGGGCGGAGCCTGGCCGGCAGCG
DNA 2: CGCTGCCGGCCAGGCTCCGCCCCTCGGCCCGCCCT
B5: Sox15 (dsDNA)
DNA 1: CAGAGGCTACTCTGAAACAAATAAAGAGATATAAA
DNA 2: TTTATATCTCTTTATTTGTTTCAGAGTAGCCTCTG
B6: MERVL-LTR (dsDNA)
DNA 1: B2 DNA 1 with C21A, G24A, C25A, C26A
DNA 2: B2 DNA 2 with G10T, G11T, C12T, G15T
B7: MSR (dsDNA)
DNA 1: CTGAAAATCATGGAAAATGAGAAACATCCACTTGA
DNA 2: TCAAGTGGATGTTTCTCATTTTCCATGATTTTCAG
B8: MERVL-int (dsDNA)
DNA 1: CCATCTTTTGATAAACACCTCAGCCAACCATTCAA
DNA 2: TTGAATGGTTGGCTGAGGTGTTTATCAAAAGATGG

These binders were tested against T1, GST-FOXD3 (assay: EMSA; up to 2.5 uM protein; EMSA: 50 nM DNA, 20 mM Tris-HCl pH 8.0, 100 mM KCl, 3 mM MgCl2, 1 mM EDTA, 5% glycerol, 0.05% NP-40, 2 mM DTT, 50 ng/ml yeast tRNA, 2.5 ng/ml BSA, 4 C, 1 h). Conditions: protein: recombinant; tags: N-terminal GST (pGEX-6P1); label: 5'-Cy5; blunt.

Binder	binding result
B1	no binding
B2	no binding
B3	no binding
B4	no binding

Each binder was assayed against T1, GST-FOXD3 (assay: EMSA; EMSA: 50 nM DNA, 20 mM Tris-HCl pH 8.0, 100 mM KCl, 3 mM MgCl2, 1 mM EDTA, 5% glycerol, 0.05% NP-40, 2 mM DTT, 50 ng/ml yeast tRNA, 2.5 ng/ml BSA, 4 C, 1 h). Conditions: protein: recombinant; tags: N-terminal GST (pGEX-6P1); label: 5'-Cy5; blunt.

Binder	binding result
B5	binds
B6	binds
B7	binds
B8	binds
